Experimental data taken from publication PMC10449495.

Columns and labels:
[1] = biological target: IpaB (invasion plasmid antigen B), affinity tag-free recombinant; assay: assembly with LPS, anion-exchange purification of the complex, SDS-PAGE gel densitometry; S. flexneri 6 LPS, 4x (2.24 w LPS/w protein); 8 uM IpaC + 1 uM IpaB in 5.1 M urea, 37 C 2 h; Q Sepharose HP, eluted at 50% Buffer B; %Band ratio
[2] = biological target: IpaB (invasion plasmid antigen B), affinity tag-free recombinant; assay: assembly with LPS, anion-exchange purification of the complex, SDS-PAGE gel densitometry; S. flexneri 2a LPS, 8x (4.48 w LPS/w protein); 8 uM IpaC + 1 uM IpaB in 5.1 M urea, 37 C 2 h; Q Sepharose HP, eluted at 50% Buffer B; %Band ratio
[3] = biological target: IpaB (invasion plasmid antigen B), affinity tag-free recombinant; assay: assembly with LPS, anion-exchange purification of the complex, SDS-PAGE gel densitometry; S. sonnei LPS, 2x (1.12 w LPS/w protein); 8 uM IpaC + 1 uM IpaB in 5.1 M urea, 37 C 2 h; Q Sepharose HP, eluted at 50% Buffer B; %Band ratio
[4] = biological target: IpaB (invasion plasmid antigen B), affinity tag-free recombinant; assay: assembly with LPS, anion-exchange purification of the complex, SDS-PAGE gel densitometry; S. flexneri 6 LPS, 8x (4.48 w LPS/w protein); 8 uM IpaC + 1 uM IpaB in 5.1 M urea, 37 C 2 h; Q Sepharose HP, eluted at 50% Buffer B; %Band ratio
[5] = biological target: IpaB (invasion plasmid antigen B), affinity tag-free recombinant; assay: assembly with LPS, anion-exchange purification of the complex, SDS-PAGE gel densitometry; S. sonnei LPS, 1x (0.56 w LPS/w protein); 8 uM IpaC + 1 uM IpaB in 5.1 M urea, 37 C 2 h; Q Sepharose HP, eluted at 50% Buffer B; %Band ratio
[6] = biological target: IpaB (invasion plasmid antigen B), affinity tag-free recombinant; assay: assembly with LPS, anion-exchange purification of the complex, SDS-PAGE gel densitometry; S. flexneri 3a LPS, 8x (4.48 w LPS/w protein); 8 uM IpaC + 1 uM IpaB in 5.1 M urea, 37 C 2 h; Q Sepharose HP, eluted at 50% Buffer B; %Band ratio
[7] = biological target: IpaB (invasion plasmid antigen B), affinity tag-free recombinant; assay: assembly with LPS, anion-exchange purification of the complex, SDS-PAGE gel densitometry; S. flexneri 6 LPS, 1x (0.56 w LPS/w protein); 8 uM IpaC + 1 uM IpaB in 5.1 M urea, 37 C 2 h; Q Sepharose HP, eluted at 50% Buffer B; %Band ratio
[8] = biological target: IpaB (invasion plasmid antigen B), affinity tag-free recombinant; assay: assembly with LPS, anion-exchange purification of the complex, SDS-PAGE gel densitometry; S. sonnei LPS, 8x (4.48 w LPS/w protein); 8 uM IpaC + 1 uM IpaB in 5.1 M urea, 37 C 2 h; Q Sepharose HP, eluted at 50% Buffer B; %Band ratio
[9] = biological target: IpaB (invasion plasmid antigen B), affinity tag-free recombinant; assay: assembly with LPS, anion-exchange purification of the complex, SDS-PAGE gel densitometry; S. sonnei LPS, 4x (2.24 w LPS/w protein); 8 uM IpaC + 1 uM IpaB in 5.1 M urea, 37 C 2 h; Q Sepharose HP, eluted at 50% Buffer B; %Band ratio
[10] = biological target: IpaB (invasion plasmid antigen B), affinity tag-free recombinant; assay: assembly with LPS, anion-exchange purification of the complex, SDS-PAGE gel densitometry; S. flexneri 3a LPS, 2x (1.12 w LPS/w protein); 8 uM IpaC + 1 uM IpaB in 5.1 M urea, 37 C 2 h; Q Sepharose HP, eluted at 50% Buffer B; %Band ratio
[11] = biological target: IpaB (invasion plasmid antigen B), affinity tag-free recombinant; assay: assembly with LPS, anion-exchange purification of the complex, SDS-PAGE gel densitometry; S. flexneri 6 LPS, 2x (1.12 w LPS/w protein); 8 uM IpaC + 1 uM IpaB in 5.1 M urea, 37 C 2 h; Q Sepharose HP, eluted at 50% Buffer B; %Band ratio
[12] = biological target: IpaB (invasion plasmid antigen B), affinity tag-free recombinant; assay: assembly with LPS, anion-exchange purification of the complex, SDS-PAGE gel densitometry; S. flexneri 2a LPS, 1x (0.56 w LPS/w protein); 8 uM IpaC + 1 uM IpaB in 5.1 M urea, 37 C 2 h; Q Sepharose HP, eluted at 50% Buffer B; %Band of full-size IpaC divided by %Band of full-size IpaB
[13] = biological target: IpaB (invasion plasmid antigen B), affinity tag-free recombinant; assay: assembly with LPS, anion-exchange purification of the complex, SDS-PAGE gel densitometry; S. flexneri 2a LPS, 2x (1.12 w LPS/w protein); 8 uM IpaC + 1 uM IpaB in 5.1 M urea, 37 C 2 h; Q Sepharose HP, eluted at 50% Buffer B; %Band ratio
[14] = biological target: IpaB (invasion plasmid antigen B), affinity tag-free recombinant; assay: assembly with LPS, anion-exchange purification of the complex, SDS-PAGE gel densitometry; S. flexneri 3a LPS, 1x (0.56 w LPS/w protein); 8 uM IpaC + 1 uM IpaB in 5.1 M urea, 37 C 2 h; Q Sepharose HP, eluted at 50% Buffer B; %Band ratio
[15] = biological target: IpaB (invasion plasmid antigen B), affinity tag-free recombinant; assay: assembly with LPS, anion-exchange purification of the complex, SDS-PAGE gel densitometry; S. flexneri 2a LPS, 4x (2.24 w LPS/w protein); 8 uM IpaC + 1 uM IpaB in 5.1 M urea, 37 C 2 h; Q Sepharose HP, eluted at 50% Buffer B; %Band ratio
[16] = biological target: IpaB (invasion plasmid antigen B), affinity tag-free recombinant; assay: assembly with LPS, anion-exchange purification of the complex, SDS-PAGE gel densitometry; S. flexneri 3a LPS, 4x (2.24 w LPS/w protein); 8 uM IpaC + 1 uM IpaB in 5.1 M urea, 37 C 2 h; Q Sepharose HP, eluted at 50% Buffer B; %Band ratio

B1: IpaC (invasion plasmid antigen C), affinity tag-free recombinant (natural protein)
chain: MEIQNTKPTQTLYTDISTKQTQSSSETQKSQNYQQIAAHIPLNVGKNPVLTTTLNDDQLLKLSEQVQHDSEIIARLTDKKMKDLSEMSHTLTPENTLDISSLSSNAVSLIISVAVLLSALRTAETKLGSQLSLIAFDATKSAAENIVRQGLAALSSSITGAVTQVGITGIGAKKTHSGISDQKGALRKNLATAQSLEKELAGSKLGLNKQIDTNITSPQTNSSTKFLGKNKLAPDNISLSTEHKTSLSSPDISLQDKIDTQRRTYELNTLSAQQKQNIGRATMETSAVAGNISTSGGRYASALEEEEQLISQASSKQAEEASQVSKEASQATNQLIQKLLNIIDSINQSKNSAASQIAGNIRA
**Q.** For B1, which IpaC:IpaB ratio in the complex with LPS (gel densitometry) [1] is on record?
**A.** Its IpaC:IpaB ratio in the complex with LPS (gel densitometry) is 4 IpaC:IpaB.

**Q.** What about the IpaC:IpaB ratio in the complex with LPS (gel densitometry) [2] of the same binder?
**A.** Its IpaC:IpaB ratio in the complex with LPS (gel densitometry) is 9.4 IpaC:IpaB.

**Q.** What about the IpaC:IpaB ratio in the complex with LPS (gel densitometry) [3] of the same binder?
**A.** The IpaC:IpaB ratio in the complex with LPS (gel densitometry) was 5.6 IpaC:IpaB.

**Q.** And the IpaC:IpaB ratio in the complex with LPS (gel densitometry) [4]?
**A.** The IpaC:IpaB ratio in the complex with LPS (gel densitometry) was 3.9 IpaC:IpaB.

**Q.** And the IpaC:IpaB ratio in the complex with LPS (gel densitometry) [5]?
**A.** Its IpaC:IpaB ratio in the complex with LPS (gel densitometry) is 2.6 IpaC:IpaB.

**Q.** What about the IpaC:IpaB ratio in the complex with LPS (gel densitometry) [6] of the same binder?
**A.** Its IpaC:IpaB ratio in the complex with LPS (gel densitometry) is 5.8 IpaC:IpaB.

**Q.** And the IpaC:IpaB ratio in the complex with LPS (gel densitometry) [7]?
**A.** Its IpaC:IpaB ratio in the complex with LPS (gel densitometry) is 2.1 IpaC:IpaB.

**Q.** And the IpaC:IpaB ratio in the complex with LPS (gel densitometry) [8]?
**A.** The IpaC:IpaB ratio in the complex with LPS (gel densitometry) was 7.2 IpaC:IpaB.

**Q.** What about the IpaC:IpaB ratio in the complex with LPS (gel densitometry) [9] of the same binder?
**A.** The IpaC:IpaB ratio in the complex with LPS (gel densitometry) was 9.4 IpaC:IpaB.

**Q.** What about the IpaC:IpaB ratio in the complex with LPS (gel densitometry) [10] of the same binder?
**A.** Its IpaC:IpaB ratio in the complex with LPS (gel densitometry) is 3.8 IpaC:IpaB.

**Q.** And the IpaC:IpaB ratio in the complex with LPS (gel densitometry) [11]?
**A.** The IpaC:IpaB ratio in the complex with LPS (gel densitometry) was 4.1 IpaC:IpaB.

**Q.** What about the IpaC:IpaB ratio in the complex with LPS (gel densitometry) [12] of the same binder?
**A.** Its IpaC:IpaB ratio in the complex with LPS (gel densitometry) is 3.8 IpaC:IpaB.

**Q.** And the IpaC:IpaB ratio in the complex with LPS (gel densitometry) [13]?
**A.** The IpaC:IpaB ratio in the complex with LPS (gel densitometry) was 6.9 IpaC:IpaB.

**Q.** What about the IpaC:IpaB ratio in the complex with LPS (gel densitometry) [14] of the same binder?
**A.** The IpaC:IpaB ratio in the complex with LPS (gel densitometry) was 2.5 IpaC:IpaB.

**Q.** And the IpaC:IpaB ratio in the complex with LPS (gel densitometry) [15]?
**A.** Its IpaC:IpaB ratio in the complex with LPS (gel densitometry) is 7.8 IpaC:IpaB.

**Q.** What about the IpaC:IpaB ratio in the complex with LPS (gel densitometry) [16] of the same binder?
**A.** Its IpaC:IpaB ratio in the complex with LPS (gel densitometry) is 5.8 IpaC:IpaB.
